Reference: patent US10111948B2, “Synthetic hapten carrier compositions and methods” (TRIA BIOSCIENCE CORP., priority 2014, dated 2018)

Key:
[1] = test system: antisera isolated from TCC^Nic4 immunized mice; test: competitive ELISA for specificity of nicotine binding by antisera
Protocol: FIG. 6 presents data showing specificity of nicotine binding by antisera isolated from TCC^Nic4 immunized mice determined by competitive ELISA for nicotine, cotinine, and acetylcholine.
Antibody affinity and the nicotine binding capacity of the anti-nicotine antibodies evoked in TCC^Nic4-immunized mice were examined. Mice were immunized with 2.5 μg TCC^Nic4 on days 0, 14, and 146, and antisera were obtained. Nicotine binding to antisera isolated from TCC^Nic4 immunized mice was determined by competitive ELISA for nicotine, cotinine, and acetylcholine.

mice = test: nicotine distribution in serum/plasma and brain after nicotine injection in immunized mice; type: in vivo
Protocol: FIGS. 9A-C show the levels of nicotine in sera and brains of mice (n=5/group) immunized with PBS, TCC^Nic4 with and without alum and GLA-SE adjuvants, or KLH conjugated to nicotine (KLH^Nic22) with and without alum and GLA-SE adjuvants. Immunized mice were injected with a dose of nicotine tartrate equivalent to the nicotine in 3 cigarettes (1.2 μg). Five minutes later the mice were sacrificed, tissues removed, and the amount of nicotine in (A) sera and (B) brain were measured by mass spectrometry. (C) The calculated percent inhibition of nicotine entry into the brain is shown.
FIGS. 10A-B show comparative antibody responses between TCC^Nic4 and KLH^Nic100. C57Bl/6 mice were immunized with each conjugate in the absence and presence of GLA-SE adjuvant. […]
To test antibody function, TCC^Nic4 or KLH^Nic22 (non-adjuvanted; +Alum; or +GLA-SE) immunized mice were injected with free nicotine equivalent to 3 cigarettes. […] Nicotine was extracted from the plasma and brain tissues and then quantified by LC/MS. The amounts of nicotine in plasma (ng/ml) and brain (ng/g) were determined. […] Data were analyzed using GraphPad Prism (San Diego, Calif.). Statistically significant differences between 2 groups were calculated by Student's 2-tailed t-test on log transformed data and between 3 or more groups by 1-factor analysis of variance (ANOVA) followed by post-hoc analysis. […]

[2] = relative Kd of serum IgG by competitive ELISA; type: binding, mice
Protocol: FIGS. 7A-B illustrate antibody avidities of antisera from mice immunized with TCC conjugated to nicotine.
Relative Kd values of serum IgG were determined by competitive ELISA. Dilutions of antiserum were prepared and incubated with soluble nicotine (0.0001-100 μM). After equilibrium was achieved, binding to bovine serum albumin (BSA) conjugated to nicotine was measured. […] Each sample was assayed in triplicate wells along with standard control sera, and the mean midpoint and endpoint titers (+/−SEM) were determined.

C57BL/6 mice [3] = test: nicotine-induced hypoactivity (locomotor activity, open field); type: in vivo; settings: 10 daily 10 μg nicotine injections, 7 day rest, 10 μg challenge
Protocol: C57Bl/6 mice were immunized with TCC^Nic4 and KLH^Nic100 in the absence and presence of GLA-SE adjuvant. Immunized mice were sensitized to nicotine with 10 daily injections (10 μg). Following a 7 day rest period, mice were challenged with nicotine (10 μg), and locomoter activity was monitored using infrared beam-equipped open field chambers. The PBS-immunized group was not challenged with nicotine.
Furthermore, mice immunized with TCC^Nic4 and KLH^Nic100 with and without GLA-SE as described above were evaluated for nicotine-induced hypoactive behavior with nicotine challenges as described in Rosenberg et al. (2013, Hum. Gene Ther. 24:595-603). Immunized mice were sensitized with 10 daily injections of 10 μg of nicotine. After a 7 day rest period, the mice were then challenged with 10 μg of nicotine, and locomotor activity was monitored using infrared beam-equipped open field chambers. The mice immunized with PBS were not challenged with nicotine.

[4] = serum nicotine binding capacity (inhibition RIA); settings: serum of immunized mice
Protocol: Kd values were used to calculate total antibody concentrations according to the law of mass action equation: Kd=[Nic][Ig]/[Nic−Ig].
Plasma was assayed for nicotine binding capacity at various times following immunization. Plasma aliquots were spiked with increasing nicotine levels (0.0001-10 μM) (serum nicotine levels in heavy smokers is 100 ng/ml or 0.617 μM) and then subjected to inhibition RIA (with H^3-Nicotine as the tracer and non-radiolabeled nicotine as the inhibitor) to calculate the total nicotine binding IgG in serum (see, e.g., Moreno et al., 2010, Mol. Pharm. 7:431-41; Muller, 1983, Methods Enzymol. 92:589-601). Immobilized protein A was used to capture IgGs from the serum to separate them from free nicotine. Aliquots of both the protein A eluate and the serum supernatant were subjected to liquid scintillation counting to quantify the amount of tracer in each fraction.

C57BL/6 mice [5] = test: anti-nicotine antibody titers by ELISA in immunized C57BL/6 mice; type: in vivo
Protocol: FIGS. 3A-B illustrate anti-nicotine antibody titers as measured by ELISA. C57Bl/6 mice (n=5/group) were immunized (days 0, 14, and 146) with 2.5 μg of the trimeric coiled-coil peptide vaccine comprising peptide monomers with 16 lysines conjugated to an average of 4 nicotines per monomer. Control groups were administered KLH-Nic22 or PBS. Vaccines were formulated with (A) Alum adjuvant or (B) GLA-SE adjuvant. Sera were collected at the indicated times and assayed for anti-nicotine antibodies by ELISA.
FIG. 5 illustrates titer to nicotine in mice (C57Bl/6 mice (n=5/group)) immunized with the indicated doses of TCC^Nic4 plus GLA-SE adjuvant. Day 35 sera were assayed for anti-nicotine antibodies by ELISA.
FIGS. 10A-B show comparative antibody responses between TCC^Nic4 and KLH^Nic100. C57Bl/6 mice were immunized with each conjugate in the absence and presence of GLA-SE adjuvant. (A) Serum was assayed for anti-nicotine antibody responses by ELISA. (B) Data showing serum sequestration of nicotine. Percent inhibition of nicotine entry into the brain is indicated.
Trimeric coiled coil structures comprising three peptide monomers having an amino acid sequence set forth in SEQ ID NO:13 were conjugated as described above with nicotine to provide constructs comprising an average of 0.6, 4, and 14 nicotine molecules per monomeric peptide. […] Sera were collected periodically for approximately 20 weeks after the primary immunization, and anti-nicotine antibody titers were determined by ELISA.
In the same experiment, groups of mice were immunized with three non-TCC nicotine carriers, FGK4.5^nic19 and IgG2^nic17 and KLH^nic22. […] Sera were collected and measured for anti-nicotine and anti-carrier antibody titers by ELISA using, respectively, nicotine conjugated BSA, non-conjugated trimeric coiled-coil peptide, and non-conjugated KLH, FGK4.5, and IgG2 carriers used in the respective vaccine composition. Each sample was assayed in triplicate wells along with standard control sera, and the mean midpoint and endpoint titers (+/−SEM) were determined. […]

Molecule	binding by antibodies induced by TCC^Nic4 immunization ([1]; competitive ELISA)	IC50 relative to nicotine ([1]; competitor in competitive ELISA)	nicotine in sera and brain, immunogen compared with KLH^Nic22 (mice; combined with either adjuvant (Alum or GLA-SE), 5 min after nicotine injection)	circulating nicotine prevented from entering the brain (mice; plus GLA-SE adjuvant, nicotine dose equivalent to 3 cigarettes, 5 min)	antibody affinity compared to KLH^Nic22 ([2]; in the absence of adjuvant)	antibody affinity relative to antibodies evoked by KLH^Nic22 ([2]; in the presence of GLA-SE adjuvant)	Kd ([2]; in the presence of GLA-SE adjuvant, read-out: affinity of the antibodies evoked by immunization (Kd))	hypoactivity behavior after nicotine challenge (C57BL/6 mice [3]; non-adjuvanted vaccine)	prevention of nicotine sensitization and hypoactivity behavior (C57BL/6 mice [3]; with GLA-SE adjuvant)	nicotine binding capacity compared with control KLH conjugate [4]	anti-nicotine antibody titer compared with KLH^Nic22 (C57BL/6 mice [5]; 2.5 μg on days 0, 14, 146, FIG. 3)	anti-nicotine antibody titers (C57BL/6 mice [5]; adjuvanted (Alum or GLA-SE), 2.5 μg on days 0, 14, 146, sera for approx. 20 weeks)	dose achieving the maximum anti-nicotine antibody response (C57BL/6 mice [5]; adjuvanted with GLA-SE, doses 0.1, 0.5, 1, 2.5 μg, day 35 sera)	specificity of antibodies induced by immunization ([1]; 2.5 μg on days 0, 14, 146)
CN1C(=O)CC[C@H]1c1cccnc1 [cotinine]	did not bind physiological concentrations	1000 fold												
TCC^Nic4: trimeric coiled coil of three SEQ ID NO:13 monomers conjugated with average 4 nicotine 6-hexanoic acid per monomer (conjugate, also: trimer (trimeric coiled coil of three monomers), ~4 nicotine 6-hexanoic acid haptens per monomer (sites not given here)) KKIEKRIEKIEKRIKKIEKRIKKIEKRIKKIEKRIKKAKFVAAWTLKAAAYQNPTTYISVK			superior immunogen	greater than 90%	higher affinity antibodies	an order of magnitude greater	~1 nM	hypoactivity observed	appeared equivalent in preventing nicotine sensitization and subsequent hypoactivity behavior	significantly larger	consistently greater	robust antibody titers	≤ 100 ng	nicotine-specific
